Measured values as given in patent US8461305B2, “L-fucose α1→6 specific lectin” (J-Oil Mills, Inc., priority 2008, dated 2013).

Experiment: frontal affinity chromatography (FAC), association constant to PA sugar chains without L-fucose
Type: binding
Conditions: 25 degrees C.
Procedure, shortened: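 Lectin coupled via primary amines to NHS-activated sepharose in a miniature column, run in TBS (pH 7.4) at 0.125 ml/min and 25 degrees C. PA sugar chains (3.75 nM or 7.5 nM) applied in excess, with elution monitored by fluorescence (ex 310/em 380 nm). Ka calculated from front-end delay (V−Vo) versus PA rhamnose and effective ligand amount (Bt).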

[1] = Sugar chain No. 728 (as listed in Table 7)

B1: Pisum sativum agglutinin (protein)
chain: TETTSFLITKFSPDQQNLIFQGDGYTTKEKLTLTKAVKNTVGRALYSSPIHIWDRETGNVANFVTSFTFVINAPNSYNVADGFTFFIAPVDTKPQTGGGYLGVFNSAEYDKTTQTVAVEFDTFYNAAWDPSNRDRHIGIDVNSIKSVNTKSWKLQNGEEANVVIAFNAATNVLTVSLTYPNSLEEENVTSYTLSDVVSLKDVVPEWVRIGFSATTGAEYAAHEVLSWSFHSELSGTSSSKQAADA
Sugar chain No. 001
  association constant Ka: <1000 M⁻¹
Sugar chain No. 002
  association constant Ka: <1000 M⁻¹
Sugar chain No. 003
  association constant Ka: 7800 M⁻¹
Sugar chain No. 004
  association constant Ka: <1000 M⁻¹
Sugar chain No. 005
  association constant Ka: 7400 M⁻¹
Sugar chain No. 006
  association constant Ka: 7100 M⁻¹
Sugar chain No. 007
  association constant Ka: 7800 M⁻¹
Sugar chain No. 008
  association constant Ka: 10000 M⁻¹
Sugar chain No. 009
  association constant Ka: 7900 M⁻¹
Sugar chain No. 010
  association constant Ka: <1000 M⁻¹
Sugar chain No. 011
  association constant Ka: <1000 M⁻¹
Sugar chain No. 012
  association constant Ka: 17000 M⁻¹
Sugar chain No. 013
  association constant Ka: <1000 M⁻¹
Sugar chain No. 014
  association constant Ka: 8600 M⁻¹
Sugar chain No. 101
  association constant Ka: <1000 M⁻¹
Sugar chain No. 103
  association constant Ka: <1000 M⁻¹
Sugar chain No. 104
  association constant Ka: <1000 M⁻¹
Sugar chain No. 105
  association constant Ka: <1000 M⁻¹
Sugar chain No. 107
  association constant Ka: <1000 M⁻¹
Sugar chain No. 108
  association constant Ka: <1000 M⁻¹
Sugar chain No. 301
  association constant Ka: <1000 M⁻¹
Sugar chain No. 304
  association constant Ka: <1000 M⁻¹
Sugar chain No. 305
  association constant Ka: <1000 M⁻¹
Sugar chain No. 307
  association constant Ka: 2400 M⁻¹
Sugar chain No. 308
  association constant Ka: <1000 M⁻¹
Sugar chain No. 313
  association constant Ka: <1000 M⁻¹
Sugar chain No. 314
  association constant Ka: <1000 M⁻¹
Sugar chain No. 323
  association constant Ka: <1000 M⁻¹
Sugar chain No. 501
  association constant Ka: <1000 M⁻¹
Sugar chain No. 502
  association constant Ka: <1000 M⁻¹
Sugar chain No. 503
  association constant Ka: <1000 M⁻¹
Sugar chain No. 504
  association constant Ka: <1000 M⁻¹
Sugar chain No. 701
  association constant Ka: <1000 M⁻¹
Sugar chain No. 702
  association constant Ka: <1000 M⁻¹
Sugar chain No. 703
  association constant Ka: <1000 M⁻¹
Sugar chain No. 704
  association constant Ka: <1000 M⁻¹
Sugar chain No. 705
  association constant Ka: <1000 M⁻¹
Sugar chain No. 706
  association constant Ka: <1000 M⁻¹
Sugar chain No. 707
  association constant Ka: <1000 M⁻¹
Sugar chain No. 708
  association constant Ka: <1000 M⁻¹
Sugar chain No. 709
  association constant Ka: <1000 M⁻¹
Sugar chain No. 710
  association constant Ka: <1000 M⁻¹
Sugar chain No. 711
  association constant Ka: <1000 M⁻¹
Sugar chain No. 712
  association constant Ka: <1000 M⁻¹
Sugar chain No. 713
  association constant Ka: <1000 M⁻¹
Sugar chain No. 715
  association constant Ka: <1000 M⁻¹
Sugar chain No. 716
  association constant Ka: <1000 M⁻¹
Sugar chain No. 717
  association constant Ka: <1000 M⁻¹
Sugar chain No. 724
  association constant Ka: <1000 M⁻¹
Sugar chain No. 725
  association constant Ka: <1000 M⁻¹
[1]
  association constant Ka: <1000 M⁻¹
Sugar chain No. 732
  association constant Ka: <1000 M⁻¹
Sugar chain No. 733
  association constant Ka: <1000 M⁻¹
Sugar chain No. 734
  association constant Ka: <1000 M⁻¹
Sugar chain No. 735
  association constant Ka: <1000 M⁻¹
Sugar chain No. 736
  association constant Ka: <1000 M⁻¹
Sugar chain No. 737
  association constant Ka: <1000 M⁻¹
Sugar chain No. 738
  association constant Ka: <1000 M⁻¹
Sugar chain No. 901
  association constant Ka: <1000 M⁻¹
Sugar chain No. 902
  association constant Ka: <1000 M⁻¹
Sugar chain No. 903
  association constant Ka: <1000 M⁻¹
Sugar chain No. 905
  association constant Ka: <1000 M⁻¹
Sugar chain No. 906
  association constant Ka: <1000 M⁻¹
Sugar chain No. 907
  association constant Ka: <1000 M⁻¹

B2: Lens culinaris agglutinin (protein)
chain 1: TETTSFSITKFSPDQKNLIFQGDGYTTKGKLTLTKAVKSTVGRALYSTPIHIWDRDTGNVANFVTSFTFVIDAPSSYNVADEFTFFIAPVDTKPQTGGGYLGVFNSKEYDKTSQTVAVEFDTFYNAAWDPSNKERHIGIDVNSIKSVNTKSWNLQNGERANVVIAFNAATNVLTVTLTYP
chain 2: VTSYTLNEVVPLKDVVPEWVRIGFSATTGAEFAAHEVHSWSFHSELGGTSSS
Sugar chain No. 001
  association constant Ka: <1000 M⁻¹
Sugar chain No. 002
  association constant Ka: <1000 M⁻¹
Sugar chain No. 003
  association constant Ka: 7200 M⁻¹
Sugar chain No. 004
  association constant Ka: <1000 M⁻¹
Sugar chain No. 005
  association constant Ka: <1000 M⁻¹
Sugar chain No. 006
  association constant Ka: 14000 M⁻¹
Sugar chain No. 007
  association constant Ka: <1000 M⁻¹
Sugar chain No. 008
  association constant Ka: 18000 M⁻¹
Sugar chain No. 009
  association constant Ka: 18000 M⁻¹
Sugar chain No. 010
  association constant Ka: 13000 M⁻¹
Sugar chain No. 011
  association constant Ka: 14000 M⁻¹
Sugar chain No. 012
  association constant Ka: 25000 M⁻¹
Sugar chain No. 013
  association constant Ka: 17000 M⁻¹
Sugar chain No. 014
  association constant Ka: 17000 M⁻¹
Sugar chain No. 101
  association constant Ka: <1000 M⁻¹
Sugar chain No. 103
  association constant Ka: <1000 M⁻¹
Sugar chain No. 104
  association constant Ka: <1000 M⁻¹
Sugar chain No. 105
  association constant Ka: <1000 M⁻¹
Sugar chain No. 107
  association constant Ka: <1000 M⁻¹
Sugar chain No. 108
  association constant Ka: <1000 M⁻¹
Sugar chain No. 301
  association constant Ka: <1000 M⁻¹
Sugar chain No. 304
  association constant Ka: <1000 M⁻¹
Sugar chain No. 305
  association constant Ka: <1000 M⁻¹
Sugar chain No. 307
  association constant Ka: <1000 M⁻¹
Sugar chain No. 308
  association constant Ka: <1000 M⁻¹
Sugar chain No. 313
  association constant Ka: <1000 M⁻¹
Sugar chain No. 314
  association constant Ka: <1000 M⁻¹
Sugar chain No. 323
  association constant Ka: <1000 M⁻¹
Sugar chain No. 501
  association constant Ka: <1000 M⁻¹
Sugar chain No. 502
  association constant Ka: <1000 M⁻¹
Sugar chain No. 503
  association constant Ka: <1000 M⁻¹
Sugar chain No. 504
  association constant Ka: <1000 M⁻¹
Sugar chain No. 701
  association constant Ka: <1000 M⁻¹
Sugar chain No. 702
  association constant Ka: <1000 M⁻¹
Sugar chain No. 703
  association constant Ka: <1000 M⁻¹
Sugar chain No. 704
  association constant Ka: <1000 M⁻¹
Sugar chain No. 705
  association constant Ka: <1000 M⁻¹
Sugar chain No. 706
  association constant Ka: <1000 M⁻¹
Sugar chain No. 707
  association constant Ka: <1000 M⁻¹
Sugar chain No. 708
  association constant Ka: <1000 M⁻¹
Sugar chain No. 709
  association constant Ka: <1000 M⁻¹
Sugar chain No. 710
  association constant Ka: <1000 M⁻¹
Sugar chain No. 711
  association constant Ka: <1000 M⁻¹
Sugar chain No. 712
  association constant Ka: <1000 M⁻¹
Sugar chain No. 713
  association constant Ka: <1000 M⁻¹
Sugar chain No. 715
  association constant Ka: <1000 M⁻¹
Sugar chain No. 716
  association constant Ka: <1000 M⁻¹
Sugar chain No. 717
  association constant Ka: <1000 M⁻¹
Sugar chain No. 724
  association constant Ka: <1000 M⁻¹
Sugar chain No. 725
  association constant Ka: <1000 M⁻¹
[1]
  association constant Ka: <1000 M⁻¹
Sugar chain No. 732
  association constant Ka: <1000 M⁻¹
Sugar chain No. 733
  association constant Ka: <1000 M⁻¹
Sugar chain No. 734
  association constant Ka: <1000 M⁻¹
Sugar chain No. 735
  association constant Ka: <1000 M⁻¹
Sugar chain No. 736
  association constant Ka: <1000 M⁻¹
Sugar chain No. 737
  association constant Ka: <1000 M⁻¹
Sugar chain No. 738
  association constant Ka: <1000 M⁻¹
Sugar chain No. 901
  association constant Ka: <1000 M⁻¹
Sugar chain No. 902
  association constant Ka: <1000 M⁻¹
Sugar chain No. 903
  association constant Ka: <1000 M⁻¹
Sugar chain No. 905
  association constant Ka: <1000 M⁻¹
Sugar chain No. 906
  association constant Ka: <1000 M⁻¹
Sugar chain No. 907
  association constant Ka: <1000 M⁻¹
